Data on one substance can be found in publication doi:10.1101/2024.07.16.603716.

The assay deals with VisA (SGO_2004) region containing its 7 G5 domains, residues 138-698, with a C-terminal His-tag (Streptococcus gordonii DL1). Briefly: denaturing western blot.

For the substance “VisA (SGO_2004) region containing its 7 G5 domains, residues 138-698, with a C-terminal His-tag (domain or fragment)”, the stoichiometry N is 2.
